Laboratory results published in paper PMC10512297, “The Penicillium chrysogenum tom1 Gene a Major Target of Transcription Factor MAT1-1-1 Encodes a Nuclear Protein Involved in Sporulation”.

Key:
[1] = biological target: T1, GST-MAT1-1-1;MAT1-2-1 (GST removed) (Penicillium chrysogenum;Penicillium …, UniProt B1GVB9;B1GVC0 1-342;1-303, |); test: EMSA; 4 uM each protein; complex faster than with GST-MAT1-2-1; EMSA: 20 ul reaction, 20 min at room temperature, native 4% polyacrylamide gel, 120 V 2-3 h; buffer, salt and pH not given (Ramsak et al. 2021 protocol); conditions: protein: recombinant;recombinant; tags: N-terminal GST;none (GST removed by TEV protease); label: 32P (probe); blunt
T1 sequence 1: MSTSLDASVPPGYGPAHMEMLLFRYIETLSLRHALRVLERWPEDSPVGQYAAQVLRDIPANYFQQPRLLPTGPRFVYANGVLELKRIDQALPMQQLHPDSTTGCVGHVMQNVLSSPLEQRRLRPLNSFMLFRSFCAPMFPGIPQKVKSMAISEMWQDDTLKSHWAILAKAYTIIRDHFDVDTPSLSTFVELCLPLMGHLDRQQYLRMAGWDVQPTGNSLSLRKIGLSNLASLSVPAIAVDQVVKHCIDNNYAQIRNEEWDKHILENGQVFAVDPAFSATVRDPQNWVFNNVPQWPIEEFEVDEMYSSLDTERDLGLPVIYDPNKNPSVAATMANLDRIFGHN
T1 sequence 2: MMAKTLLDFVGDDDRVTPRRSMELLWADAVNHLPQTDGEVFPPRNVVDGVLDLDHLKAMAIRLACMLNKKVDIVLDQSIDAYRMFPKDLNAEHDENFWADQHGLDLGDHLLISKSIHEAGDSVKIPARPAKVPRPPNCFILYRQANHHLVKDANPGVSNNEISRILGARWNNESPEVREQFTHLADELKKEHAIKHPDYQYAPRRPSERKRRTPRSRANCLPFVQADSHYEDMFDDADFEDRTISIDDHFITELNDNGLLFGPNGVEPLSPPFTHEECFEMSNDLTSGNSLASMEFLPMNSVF

GST-MAT1-1-1 = biological target: T2, GST-MAT1-1-1 (Penicillium chrysogenum, UniProt B1GVB9 1-342); test: EMSA; 2.5 uM protein; self-competition by unlabelled tom1-2; EMSA: 20 ul reaction, 20 min at room temperature, native 4% polyacrylamide gel, 120 V 2-3 h; buffer, salt and pH not given (Ramsak et al. 2021 protocol); conditions: protein: recombinant; tags: N-terminal GST; chain copies: 2; label: 32P (probe); blunt
T2 sequence: T1 sequence 1

GST-MAT1-2-1 = biological target: T3, GST-MAT1-2-1 (Penicillium chrysogenum PC3, UniProt B1GVC0 1-303); test: EMSA; 7 uM protein; more protein needed than for GST-MAT1-1-1; self-competition by unlabelled tom1-2; EMSA: 20 ul reaction, 20 min at room temperature, native 4% polyacrylamide gel, 120 V 2-3 h; buffer, salt and pH not given (Ramsak et al. 2021 protocol); conditions: protein: recombinant; tags: N-terminal GST; label: 32P (probe); blunt
T3 sequence: T1 sequence 2

[2] = biological target: T4, GST-MAT1-1-1;GST-MAT1-2-1 (Penicillium chrysogenum;Penicillium …, UniProt B1GVB9;B1GVC0 1-342;1-303, |); test: EMSA; 4 uM each protein; slower migrating complex; EMSA: 20 ul reaction, 20 min at room temperature, native 4% polyacrylamide gel, 120 V 2-3 h; buffer, salt and pH not given (Ramsak et al. 2021 protocol); conditions: protein: recombinant;recombinant; tags: N-terminal GST;N-terminal GST; label: 32P (probe); blunt
T4 sequence 1: T1 sequence 1
T4 sequence 2: T1 sequence 2

Measured: binding result

B1: tom1-2 (dsDNA)
DNA 1: TCACGTGATCTCTATTGAGAACAATAGAA
DNA 2: TTCTATTGTTCTCAATAGAGATCACGTGA
binds: all assays above
